In test [1] the target is T1, Recombinantly expressed fused calprotectin (His6-linker-S100A9-linker-S100A8), product code B-RCAL, BÜHLMANN Laboratories AG (human), P06702.
T1 chain: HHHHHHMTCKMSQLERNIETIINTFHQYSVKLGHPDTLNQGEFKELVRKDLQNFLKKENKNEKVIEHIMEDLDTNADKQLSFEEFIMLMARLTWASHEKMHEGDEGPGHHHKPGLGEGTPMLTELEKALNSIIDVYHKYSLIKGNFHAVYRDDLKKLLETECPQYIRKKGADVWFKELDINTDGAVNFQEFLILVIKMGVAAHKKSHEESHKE
Briefly: fluorescence polarization. The note with it: modification not given. A general note: In fluorescence polarisation assays a small probe gives low polarisation when free and higher when bound to something large.

The target in test [2] is T1, Recombinantly expressed fused …. The test can be described thus: SPR. To be noted: modification not given.

For the molecule RSPASVAFPMFQSHWYSG, in test [1], the Kd is 26 nM. For the molecule RCPECVAFAMFQCHWYCG, the Kd in test [1] was 30 nM. On to RCPECVAYPMFQCHWYCG [F8 Tyr], for which the Kd in test [2] was above 10000 nM. As for RCPECVAFPMAQCHWYCG [F11 L-Ala], in test [2], the Kd was above 10000 nM. Take RCPECVAFPMFQCHWYCA: the Kd in test [1] came out at 31 nM. Regarding RCAECVAFPMFQCHWYCG, the Kd in test [1] stood at 28 nM. In the case of RCPECVAFPMFQCHWACG [Y16 L-Ala], the Kd in test [2] was above 10000 nM.

As for RCPECVAFPMFQCAWYCG [H14 L-Ala], the Kd in test [2] is above 10000 nM. As to RCPECVAFPMQQCHWYCG [F11 Gln], the Kd in test [2] is above 10000 nM. In the case of RSPESVAFPMFQSHWYSA, the Kd in test [1] was determined as 31 nM. Regarding RSPESVAFPMFQSHAYSG, the Kd in test [1] came to 24 nM.

As for RCPECVAIPMFQCHWYCG [F8 Ile], the Kd in test [2] is above 10000 nM. With RSPESVAFAMFQSHWYSG, the Kd in test [1] is 30 nM.

With RSPESVAFPMFASHWYSG, in test [1], the Kd was 27 nM.

For RSPESVGFPMFQSHWYSG, the Kd in test [1] turned out to be 29 nM.

Regarding RCPECVAAPMFQCHWYCG [F8 L-Ala], in test [2], the Kd was above 10000 nM.

For the molecule RCPACVAFPMFQCHWYCG, the Kd in test [1] is 26 nM. Turning to RCPECVAFPMIQCHWYCG [F11 Ile], the Kd in test [2] is above 10000 nM.

In the case of RSAESVAFPMFQSHWYSG, in test [1], the Kd came out at 28 nM.

As for RSPESAAFPMFQSHWYSG, in test [1], the Kd worked out at 39 nM. As to RCPECVAQPMFQCHWYCG [F8 Gln], in test [2], the Kd is above 10000 nM. For RCPECVAEPMFQCHWYCG [F8 Glu], in test [2], the Kd is above 10000 nM. In the case of RCPECAAFPMFQCHWYCG, the Kd in test [1] is 39 nM. With ACPECVAFPMFQCHWYCG, the Kd in test [1] is 32 nM. Take ASPESVAFPMFQSHWYSG: the Kd in test [1] came to 32 nM. In the case of RCPECVAFPMKQCHWYCG [F11 Lys], the Kd in test [2] was above 10000 nM.

Consider RCPECVGFPMFQCHWYCG, for which, in test [1], the Kd worked out at 29 nM. Consider RCPECVAFPMFACHWYCG, for which the Kd in test [1] worked out at 27 nM. Regarding RCPECVAFPMEQCHWYCG [F11 Glu], the Kd in test [2] is above 10000 nM.

In the case of RCPECVAFPMFQCHAYCG, in test [1], the Kd stood at 24 nM.

The term Kd denotes the free concentration of one partner at which half of the binding sites on the other are occupied at equilibrium, for simple one-to-one binding.

(Values after US20250326807A1, “CALPROTECTIN BINDING PEPTIDES” (Buehlmann Laboratories AG, priority 2022, published 2025).)
